B1: SS6V11-E7 (antibody, V domains shown)
VH: QVQLQESGPGLVKPSETLSLTCTVSGGFIGPHYWSWVRQPPGKGLEWIGYIYISGSTNYNPSLKSRLTISVDMSKSQFSLTLSSATAADTAVYYCARGGGYLETGPFEYWGQGTLVTVSS
VL: DIVMTQSPLSLPVTPGEPASISCRSSQSLLQNNGYNYLAWYLQKPGQSPQLLIYLSSTRASGVPDRFSGSGSGTDFTLKISRVEAEDVGVYYCMQSLQIPGTFGQGTRLEIK
B2: LyCov-1404 (bebtelovimab) (antibody, V domains shown)
VH: QITLKESGPTLVKPTQTLTLTCTFSGFSLSISGVGVGWLRQPPGKALEWLALIYWDDDKRYSPSLKSRLTISKDTSKNQVVLKMTNIDPVDTATYYCAHHSISTIFDHWGQGTLVTVSS
VL: QSALTQPASVSGSPGQSITISCTATSSDVGDYNYVSWYQQHPGKAPKLMIFEVSDRPSGISNRFSGSKSGNTASLTISGLQAEDEADYYCSSYTTSSAVFGGGTKLTVL

Tests used:
[1] = molecular target: SARS-CoV-2 B.1.351 (beta) RBD (SARS-CoV-2 B.1.351 (beta), UniProt P0DTC2 319-541); assay: multiplex sVNT, RBD-coated beads, PE-hACE2 as competitor
[2] = molecular target: SARS-CoV-2 B.1.617.2 (delta) RBD (SARS-CoV-2 B.1.617.2 (delta), UniProt P0DTC2 319-541); assay: as above
[3] = molecular target: SARS-CoV-2 B.1.1.529.1 (BA.1) RBD (SARS-CoV-2 B.1.1.529.1 (BA.1), UniProt P0DTC2 319-541); assay: as above
[4] = molecular target: SARS-CoV-2 B.1.1.529.5 (BA.5) RBD (SARS-CoV-2 B.1.1.529.5 (BA.5), UniProt P0DTC2 319-541); assay: as above
SARS-CoV-2 XBB.1 RBD = SARS-CoV-2 XBB.1 RBD (SARS-CoV-2 XBB.1, UniProt P0DTC2 319-541); assay: as above
BQ.1.1 spike protein = BQ.1.1 spike protein (SARS-CoV-2 variant BQ.1.1, UniProt P0DTC2 14-1273); assay: pVNT (FIG. 1E, 1F, 2A, 3 cited); no direct binding assay described

Binder | binding result [1] | binding result [2] | binding result [3] | binding result [4] | binding result (SARS-CoV-2 XBB.1 RBD) | binding result (BQ.1.1 spike protein)
B1 | binds | binds | binds | binds | binds | 
B2 |  |  |  |  |  | no binding
